Results taken from the nanobody polyreactivity screen of Harvey et al. (2022).

Assay: yeast display, Sf9 membrane polyspecificity reagent, FACS + sequencing; frameworks hold sequencing errors
How it was run: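 Synthetic nanobody libraries on Saccharomyces cerevisiae BJ5465 were galactose-induced for 36–48 hours, stained 1 hour at 4 °C with 10% biotinylated, detergent-solubilized Sf9 membrane reagent and enriched on streptavidin microbeads. FACS then separated cells into low and high (top ~1%) gates by anti-HA (expression) and streptavidin (reagent binding) fluorescence. Genes were colony-PCR amplified, MiSeq 2 × 250 sequenced and CDR-length filtered. A clone's polyreactivity label is that of its gate of origin.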

Row | Sequence | polyreactivity (PSR sort gate)
1 | QVQLVESGGGLVQAGGSLRLSCAASGFIFYLYAMGWYRQAPGKERELVAAISWDGGSTYYADSVKGRFTISRDNAKNTVYLQMNSLKPEDTAVYYCAADREFWWEVVYTYEYYYWGQGTQVTVSS | low polyreactivity
2 | QVQLVESGGGLVQAGGSLRLSCAASGFIFYNYALGWYRQAPGKERELVAAISASGGRSYYADSVKGRFTISRDNAKNTVYLQMNRLKPEDTAVYYCNARVNYKGYDYWGQGTQVTVSS | high polyreactivity
3 | QVQLVESGGGLVQAGGSLRLSCAASGFIFYNYAMGWYRQAPGKERELVAAITGGGSTNYADSVKGRLTISRDNPKNTVYLQMNSLKPEDTAVYYCAAEEGPPWSRYDYWGQGTQVTVSS | low polyreactivity
4 | QVQLVESGGGLVQAGGSLRLSCAASGFIFYPYAMGWYRQAPGKERELVAVIRWSGGRTYYADSVKGRFTISRDNAKNTVYLQMNSLKPEDTSVYYCNARKITRYAVGPRKLGDYWGQGTQVTVTS | high polyreactivity
5 | QVQLVESGGGLVQAGGSLRLSCAASGFIFYRNALGWYRQAPGKERELVAVIRWSGTSTSYADSVKGRFTISRDNAKNTVYLQMNSLKPEDTAVYYCNAAWYDLYGDSDGDDYWGQGTQVTVSS | low polyreactivity
6 | QVQLVESGGGLVQAGGSLRLSCAASGFIFYRNAMGWYRQAPGKERELVAAISKSGGITYYADSVKGRFTISRDNAKNTVYLQMNSLKPEDTAVYYCAKASQNGYDYWGQGTQVTVSS | high polyreactivity
7 | QVQLVESGGGLVQAGGSLRLSCAASGFIFYRYAIGWYIQAPGKEREFVASISGSGGRTYYADSVKGRFTISRDNAKNTVYLQMNTLKPEDTAGYYCAADRYSAYLYWDEYWGQGTQVTVSS | high polyreactivity
8 | QVQLVESGGGLVQAGGSLRLSCAASGFIFYRYAMGRYRQAPGKERELVAAISWYGGTTYYADSVKGRFTISRDNAKNTVYLQMNSLKPEDTAVYYCAASRLRTEYYWGQGTQVTVSS | high polyreactivity
9 | QVQLVESGGGLVQAGGSLRLSCAASGFIFYRYAMGWSRQAPGKERELVAAISWGGGSTTYYADSVKGRFTISRDNAKNTVYLQMNSLKPEDTAVYYCAAYIGKGYGSEYYYWGQGTQVTVSS | low polyreactivity
10 | QVQLVESGGGLVQAGGSLRLSCAASGFIFYRYAMGWYRQAPGKERELVAAISRSGGSTYYADSVKGRFTISRDNAKNTVYLQMNSLKPEDTAVYYCAADRGSLAPGNDYWGQGTQVTVSS | high polyreactivity
11 | QVQLVESGGGLVQAGGSLRLSCAASGFIFYRYAMGWYRQAPGKERELVAAISSSGGSTYYADSVKGRFTISRDNAKNTVYFQMNSLKPEDTAVYYCNKRPQQYRPGYDYWGQGTQVTVSS | high polyreactivity
12 | QVQLVESGGGLVQAGGSLRLSCAASGFIFYRYAMGWYRQAPGKERELVAAITSSGGSTYYADSVKGRFTISRDNAKNTVYLQMNSLKPEDTAVYYCAARYTTSRYGYWGQGTQVTVSS | high polyreactivity
13 | QVQLVESGGGLVQAGGSLRLSCAASGFIFYRYAMGWYRQAPGKERELVATIRYSGGSTYYADSVKGRFTISRDNAKNTVYLQMNSLKPEDTAVYYCNARRWYLPRRLYDYWGQGTQVTVSS | high polyreactivity
14 | QVQLVESGGGLVQAGGSLRLSCAASGFIFYRYAMGWYRQAPGKERELVATISWSGGRTYYADSVKGRFTISRDNAKNTVYLQMNSLKPEDTAVYYCNAVNTHDYGYWGQGTQVTVSS | low polyreactivity
15 | QVQLVESGGGLVQAGGSLRLSCAASGFIFYRYTMGWYRQAPGKERELVAAISGSGGSTYYADSVKGRFTISRDNAKNTVYLQMNSLKPEDTAVYYCAAAHRYWGQGTQVTVSS | high polyreactivity
16 | QVQLVESGGGLVQAGGSLRLSCAASGFIFYSNAMGWYIQAPGKEREVVAAISWDAGSTYYADSVKGRFTISRDNAKNTVYLQMISLKPEDSAVYYCATDRIVGRYIYNYWGQGTQVTVSS | high polyreactivity
17 | QVQLVESGGGLVQAGGSLRLSCAASGFIFYSNAMGWYRQAPGKARELVAAISWGGGRTYYADSVKGRFTISRDNAKNTVYLQMNSLKPEDTAVYYCAADTIVGNGIKFDYWGQGTQVTVSS | high polyreactivity
18 | QVQLVESGGGLVQAGGSLRLSCAASGFIFYSYAMGWYRQAPGKERELVAAIDWDDGTTYYADSVKGRFTISRDNAKNTVYLQMNSLNPEDTAVYYCAAESYYGAYDYWGQGTQVTVSS | high polyreactivity
19 | QVQLVESGGGLVQAGGSLRLSCAASGFIFYTYAMGWYRQAPGKERELVAAISRGGRTNYADSVKGRFTISRDNAKNTVYLQMNSLKPEDTAVYYCASSYSHRYDYWGQGTQVTVSS | high polyreactivity
20 | QVQLVESGGGLVQAGGSLRLSCAASGFIFYTYAMGWYRQAPGKERELVAAISWNGGSTNYADSVKGRFTISRDNAKNTDYLQMNSLKPEDTAVYYCAARSVSTLRYTSRKLRYDYWGQGTQVTVSS | high polyreactivity
21 | QVQLVESGGGLVQAGGSLRLSCAASGFIFYTYAMGWYRQAPGKERELVAAISWRGGRTYYADSVKGRFTISRDNAKNTVYLQMNSLKPEDTAVYYCNAVTSSGEYDYWGQGTQVTVSS | high polyreactivity
22 | QVQLVESGGGLVQAGGSLRLSCAASGFIFYWYAMGWYRQAHGKERELVARITQSVGRTYYADSVKGRFTISRDNAKNTVYLQMNSLKPEDTAVHYCATDYGSYWSGAAYERYDYWGQGTQVTVSS | low polyreactivity

Row | Sequence | polyreactivity (PSR sort gate)
23 | QVQLVESGGGLVQAGGSLRLSCAASGFIFYYNAMGWYRHAPGKERELDAGISRSAGSTYYADSVKGRFTISRDNAKNSVYLHMNSLTPEDTAVYYCAARYLSYITGTSYYWGQVTQVTVSS | low polyreactivity
24 | QVQLVESGGGLVQAGGSLRLSCAASGFIFYYNGMGRYRQAPGKERELVAAISGGVGSTYYADSVKGRFTISRDNAKNTVYLQMNSLKPEDTAVYYCNAKLYKPPFDYWGQGTQVTLSS | low polyreactivity
25 | QVQLVESGGGLVQAGGSLRLSCAASGFIFYYYAMGWYRPAPGKERELVAAISGESTSTYYADSVKGRFTISRDNAKNTVYLQMNSLKPEDTALYYCAADLYHWDGYEYWGQGTQVTVST | high polyreactivity
26 | QVQLVESGGGLVQAGGSLRLSCAASGFIFYYYAMGWYRPAPGKERELVAAISGSGGSTYYADSVKGRFTISRDNAKNTGYLQMNSMNPEDTAVYYCAAVQAAGSHAYDYWGQGTQVTVSS | high polyreactivity
27 | QVQLVESGGGLVQAGGSLRLSCAASGFIFYYYAMGWYRQAPGKERELVAAITQGGGSTYYADSVKGRFTISRDNAKNTVFLQMNSLKPEDTAVYYCAAVKRVYAHSRAFSSDFYYWGQGTQVTVSS | high polyreactivity
28 | QVQLVESGGGLVQAGGSLRLSCAASGFIGWYAMGWYRQAPGNEREFVAAISASGGSTYYADSVKGRFTISRDNAKNTVYLQMNSLKPEETAVYYCAAYYRAYNPRRFYYWGQGTQVTVSS | high polyreactivity
29 | QVQLVESGGGLVQAGGSLRLSCAASGFIIDDNTMGWYRQAPGKEMELVAAISYSAGSTYYADSVKGRFTISRDNAKNTVYLQMNSVKPEDTAVYYCAAQHYWVTSYLSSSDYWGQGTQVTVSS | low polyreactivity
30 | QVQLVESGGGLVQAGGSLRLSCAASGFIIDGYAMGWYRQAPVKERELVAVISQRGSNTYYADSVKGRFTISRDNAKNTVYLQMNSLKPEDTAVYYCAARYKQGDSTGGRMNYWGQGTQVTVSS | high polyreactivity
31 | QVQLVESGGGLVQAGGSLRLSCAASGFIIDSNAMGWYRQAPGKERELVAAIDYSGGSTYYADSVKGRFTISRDNAKNTVYLQMNSLKPEDTAFYYCAAEYHGYRYNYYPYSHYFIYEYWGQGTQVTVSS | high polyreactivity
32 | QVQLVESGGGLVQAGGSLRLSCAASGFIIGSYAMGWYRQAPGTERELVAAITRSGGNTYYADSVKGRFTISRDNAKNTVYLQMNSLKPEDTAVYYCAAYSGYWYDYWGQGTQVTVSS | high polyreactivity
33 | QVQLVESGGGLVQAGGSLRLSCAASGFIIGYYAMGWYRQAPGKERDLVAAISSTGGSTYYADSVKGRFTISRDNAMNTVYLQMNSLKPEDTAVYYCAKRFAYYRYHPGYDYWGQVTQVTVSS | high polyreactivity
34 | QVQLVESGGGLVQAGGSLRLSCAASGFIIKSYAMGWYRQAPGKERELVAAISYTGSITYYADSVKGRFTISRDNAKNTVYLQMNSLKPEDTSVYYCAVGRYADQNDYWGQGTQVTVSS | high polyreactivity
35 | QVQLVESGGGLVQAGGSLRLSCAASGFIIKWYAMGWYRQAPGKERELLAAISIDGGSTYYADSVKGRFTISRDNAKNTVYLQMNSLLPEDTAVYYCNAGYNGTQYLTRDYGLGMDYWGLGTQVTVSS | low polyreactivity
36 | QVQLVESGGGLVQAGGSLRLSCAASGFIIQGNAMGWYRQAPGKERELVAAISSCVSTYYADSVKGRFTISRDNAKNTVYLQMNSLKPEDTAVYYCNAGFPLSLWLGDYWGQGTHVTVSS | low polyreactivity
37 | QVQLVESGGGLVQAGGSLRLSCAASGFIISHYAMGWYRQAPGKERELVAAISSSGGSTYYADSVKGRFTISRDNAKNTVYLQMNSLKPEDTAVYYCAAAAGAYDYDYWGQGTQVNVSS | high polyreactivity
38 | QVQLVESGGGLVQAGGSLRLSCAASGFIISPYAMGWYRQAPGKERELVAAISWSGVSTYYADSVKGRFTISRDNAKNTVYLQMNSLKPEDTAVYYCATYRPVYYWGQGTQVTVSS | high polyreactivity
39 | QVQLVESGGGLVQAGGSLRLSCAASGFIISPYARGWYRQAPGKETELVAAISWSGVSTYYADSVKGRFTMSRDNAKNTVYLQMNSLNPEDTAVYYCAADPYCVKYRYGDDYWGQGTQVTVSS | high polyreactivity
40 | QVQLVESGGGLVQAGGSLRLSCAASGFIISVYAMGWYRPAPGKERELVARIDSGGSTYYADSVKGRFTISRDNAKNTVYLQMNSLKPEDTAVYYGATDEGTVGGQQLRPLMDYWGQGTQVTVSS | low polyreactivity
41 | QVQLVESGGGLVQAGGSLRLSCAASGFIITSYAMGWYRQAPGKERELVAAINGGGSTYYADSVKGRFTISRDNAKNTVYLQMNSLKPEDTAVYYCAAKFRAGRSSYYWGQGTQVTVSS | high polyreactivity
42 | QVQLVESGGGLVQAGGSLRLSCAASGFIITTYAMGWYRQAPGTEREVVAGISSSGGSTRYADSVKGRFTISRDNAKNTVYLQMNSLKPEDTAVYYCNVLRYRGYDYWGQGTQVTVSS | high polyreactivity
43 | QVQLVESGGGLVQAGGSLRLSCAASGFIIVRNALGWYRQAPGKERELVAAMRWSGGSTYYADSEKGRFTISRDNSKNTDYLQMNSLKPEDTAVYYCAARLWLKVQYLRFFVYDYWGQGTQVTVSS | low polyreactivity
